Data on one substance can be found in article PMC5581011.

Where two headings read alike, the source gives them in different places.

One experiment concerns the target gimsilumab (human). The experiment is described as follows: ELISA; data not shown; rituximab and gimsilumab with sCA125, binding of CD16a-biotin. In general terms: An ELISA detects its analyte on a solid surface through an enzyme-linked reagent.
For a further experiment, the target named is rituximab. Described as above.
The target of experiment [1] is mesothelin on CHO-MSLN cells (UniProt Q13421). The experiment is described as follows: absorption (depletion) of sCA125 on cells; sCA125 preparation absorbed on CHO-MSLN cells or CHO-K1 parental cells; what is left in the supernatant.
In experiment [2] the target is farletuzumab, humanized IgG1 monoclonal antibody to folate receptor alpha (human (humanized IgG1)). The experiment is described as follows: ELISA; unlabeled farletuzumab incubated alone or with sCA125 or HSA, probed with biotinylated CD16a, CD32a or CD64a; percent inhibition of Fc receptor binding compared to control.
Experiment [3] has the same target. The experiment is described as above. The source holds these as a separate data set.

farletuzumab, humanized IgG1 monoclonal antibody to folate receptor alpha (human (humanized IgG1)), sequence (heavy, as listed by the source, chain 1 of 2): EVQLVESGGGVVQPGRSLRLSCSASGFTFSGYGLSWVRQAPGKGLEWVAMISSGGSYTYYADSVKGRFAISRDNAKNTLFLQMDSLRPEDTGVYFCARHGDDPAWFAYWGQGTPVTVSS
farletuzumab, humanized IgG1 monoclonal antibody to folate receptor alpha (human (humanized IgG1)), sequence (light, as listed by the source, chain 2 of 2): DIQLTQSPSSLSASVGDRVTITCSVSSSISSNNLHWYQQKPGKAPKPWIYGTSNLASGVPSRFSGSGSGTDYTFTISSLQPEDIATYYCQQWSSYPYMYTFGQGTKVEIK
gimsilumab (human), sequence (heavy, as listed by the source, chain 1 of 2): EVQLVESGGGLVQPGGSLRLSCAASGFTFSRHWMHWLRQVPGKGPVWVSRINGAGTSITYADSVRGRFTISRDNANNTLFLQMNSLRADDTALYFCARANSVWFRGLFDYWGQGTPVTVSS
gimsilumab (human), sequence (light, as listed by the source, chain 2 of 2): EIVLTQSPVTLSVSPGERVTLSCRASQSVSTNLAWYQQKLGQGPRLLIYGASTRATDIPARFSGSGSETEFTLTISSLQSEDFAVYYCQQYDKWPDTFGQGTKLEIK
UniProt Q13421, sequence (Q13421 other isoform, or with tags, fused parts or gaps): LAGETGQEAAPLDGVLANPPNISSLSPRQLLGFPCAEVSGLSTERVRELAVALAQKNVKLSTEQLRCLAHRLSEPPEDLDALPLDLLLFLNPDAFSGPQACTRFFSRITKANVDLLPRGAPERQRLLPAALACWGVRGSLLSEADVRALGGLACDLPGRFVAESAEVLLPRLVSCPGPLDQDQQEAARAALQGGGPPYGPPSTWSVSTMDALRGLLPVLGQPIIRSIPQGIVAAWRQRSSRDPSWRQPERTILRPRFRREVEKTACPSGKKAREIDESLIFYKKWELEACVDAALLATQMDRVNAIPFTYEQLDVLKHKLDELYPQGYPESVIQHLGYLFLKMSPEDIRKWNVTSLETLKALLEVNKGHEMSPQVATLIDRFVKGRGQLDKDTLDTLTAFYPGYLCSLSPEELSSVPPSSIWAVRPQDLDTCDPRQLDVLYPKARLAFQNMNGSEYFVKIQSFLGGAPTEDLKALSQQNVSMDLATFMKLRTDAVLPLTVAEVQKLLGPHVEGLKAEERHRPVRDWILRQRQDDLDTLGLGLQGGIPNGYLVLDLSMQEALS

As to “soluble CA125 (sCA125), tumor-shed antigen CA125/MUC16 (from UniProt Q8WXI7 1-14507) (natural protein)”, the percent inhibition of CD16a-biotin binding to the antibody with gimsilumab (human) and in the experiment with rituximab was less than 50% throughout. Besides, in experiment [1], the percent of sCA125 removed by absorption on CHO-MSLN cells was found to be 98%. In addition, the percent inhibition of CD16a-biotin binding to farletuzumab is 38 to 50% in experiment [2] and 46% in experiment [3]. This substance also yielded a percent inhibition of CD32a-biotin binding to farletuzumab in experiment [3] of 12%.
